Data set [1] has as its target rice histone H2A;rice histone H2B;rice histone H3;H4.VS (H4.V N-terminal 53 aa fused to H4 C-terminal 50 aa) (Oryza sativa;Oryza sativa;Oryza …, UniProt A2YMC6;A2WKP5;A2Y533;PDB:8Q16_4 ;;;, |||). Nature of the data set: EMSA (nucleosome reconstitution, native PAGE); mobility shift similar to H4 NCP; NCP gel: native 6% acrylamide, 0.5x TBE; peptide pull-down: 10 mM Tris pH 8.0, 50 mM NaCl, 5 mM MgCl2, 4 C, 6 h; cryo-EM: 10 mM Tris pH 8.0, 50 mM NaCl, 1 mM EDTA. The note with it: protein: recombinant;recombinant;recombinant;recombinant; tags: none;none;none;none; chain copies: 2;2;2;2; blunt. A general note: Mobility shift assays separate free from complexed probe on a gel.

Data set [2] addresses rice histone H2A;rice histone H2B;rice histone H3;rice histone H4 (Oryza sativa;Oryza sativa;Oryza …, UniProt A2YMC6;A2WKP5;A2Y533;B7F4Q1 ;;;1-103, |||). The experiment in a line: EMSA (nucleosome reconstitution, native PAGE); NCP gel: native 6% acrylamide, 0.5x TBE; peptide pull-down: 10 mM Tris pH 8.0, 50 mM NaCl, 5 mM MgCl2, 4 C, 6 h; cryo-EM: 10 mM Tris pH 8.0, 50 mM NaCl, 1 mM EDTA. As to conditions: protein: recombinant;recombinant;recombinant;recombinant; tags: none;none;none;N-terminal MGS extension from vector; chain copies: 2;2;2;2; blunt.

B1: Widom 601 NPS (147 bp as stated; 146 nt printed) (dsDNA)
DNA 1: CTGGAGAATCCCGGTGCCGAGGCCGCTCAATTGGTCGTAGACAGCTCTAGCACCGCTTAAACGCACGTACGCGCTGTCCCCCGCGTTTTAACCGCCAAGGGGATTACTCCCTAGTCTCCAGGCACGTGTCACATATATACATCCTG
DNA 2: CAGGATGTATATATGTGACACGTGCCTGGAGACTAGGGAGTAATCCCCTTGGCGGTTAAAACGCGGGGGACAGCGCGTACGTGCGTTTAAGCGGTGCTAGAGCTGTCTACGACCAATTGAGCGGCCTCGGCACCGGGATTCTCCAG
Take B1: the binding result in data set [1] and in data set [2] was “binds” each time.

For the origin of these results see paper PMC7617672, “Oryza genera-specific novel Histone H4 variant predisposes H4 Lysine5 Acetylation marks to modulate salt stress responses”.
